Like-named read-outs stand apart in the source and are kept apart here.

A word on the Kd: it is the equilibrium constant for the complex coming apart.

Experiment [1] concerns the target T1, 14-3-3γ (Homo sapiens, UniProt P61981).
T1 sequence (P61981 1-247): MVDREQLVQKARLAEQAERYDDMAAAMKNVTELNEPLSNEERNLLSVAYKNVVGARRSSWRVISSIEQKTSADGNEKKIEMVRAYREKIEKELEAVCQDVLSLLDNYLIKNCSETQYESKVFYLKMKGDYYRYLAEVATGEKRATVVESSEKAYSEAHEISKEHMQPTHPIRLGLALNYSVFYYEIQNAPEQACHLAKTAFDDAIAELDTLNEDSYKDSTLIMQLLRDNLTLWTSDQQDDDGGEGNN
Set-up: method as in Soini et al. The settings on record: SPR, in absence of DMSO; ref Soini et al.; read-out: KD of SLP76-SH2 binding to 14-3-3γ; cited from earlier work. In general terms: In SPR one partner is held on a chip, and binding of the other changes the refractive index at the surface.

For experiment [2], the target named is T1, 14-3-3γ. Kind of experiment: SPR binding assay of the SLP76-SH2 construct to 14-3-3γ. The settings on record: in the presence of 5% DMSO, extrapolated from binding curve. From the text:
Fig. 1 Assay set-up for the 14-3-3γ/SLP76 PPI. a) SPR binding assay of the SLP76-SH2 construct binding to 14-3-3γ in the presence of 5% DMSO. The KD value has been extrapolated from the binding curve reported on the right of the sensorgrams. b) HTRF assay set-up. The two proteins of interest, SLP76 and 14-3-3γ have been labelled with […], to generate a suitable matched pair of donor molecule (Tb) and acceptor molecule (AF647). The donor molecule, Tb labelled 14-3-3, is excited at the proper wavelength of 337 nm. When the acceptor is not in the proximity (no binding) no signal is detected. When SLP76 bound to 14-3-3 brings the acceptor molecule AF647 close to the donor, energy transfer occurs between the fluorophores pair. A radiation with the wavelength of 665 nm is consequently emitted to generate a read-out (665/620 nm). All HTRF protein systems used in this work are reported in the legend.
SPR experiments were performed on a Biacore T200 (Cytiva). The Sensor Chip NTA was validated as previously reported by Soini et al.[63] A DMSO tolerance at 2% and 5% was performed in the same way (Fig. S1 ^†). […]
confirming a DMSO tolerance of the 14-3-3γ/SLP76-SH2 system in an SPR context. A KD value calculated by […]

B1: SLP76-SH2: 20 KDa phosphorylated SLP76 protein construct (pSer376), binding partner of 14-3-3γ (protein)
chain: MPGAFSESNSSFPQSASLPPYFSQGPSNRPPIRAEGRNFPLPLPNKPRPPSPAEEENSLNEEWYVSYITRPEAEAALRKINQDGTFLVRDSSKKTTTNPYVLMVLYKDKVYNIQIRYQKESQVYLLGTGLRGKEDFLSVSDIIDYFRKMPLLLIDGKNRGSRYQCTLTHAAGYP
modifications: phospho-Ser376 (in vitro by HPK1); His6-SUMO tag cleaved; AF647 amine-labelled in HTRF; the segment is inferred to span Ser376 and the C-terminal SH2 domain to t
In the case of B1, the figures for the dissociation constant (Kd) in the experiment with 14-3-3γ [1] and in the experiment with 14-3-3γ [2] were 43 nM and 27.9 ± 1.5 nM, respectively.

Source of the values: PMC8459327, “Identification of molecular glues of the SLP76/14-3-3 protein–protein interaction” (RSC Medicinal Chemistry, 2021).
